# Assay results: publication PMC11722432
# pKd: −log10 of the molar value.
# Target: dynein-dynactin complex (pig brain dynein with pig brain dynactin) (pig (endogenous in pig brain)) (UniProt F2Z5G5)
# Experiment: negative-stain EM
substance,measurement,value
full-length BicdR1 (from UniProt A0JNT9 1-577) (natural protein),pKd,5.29
